B1: Tumor susceptibility gene 101 protein (Homo sapiens), Q99816 (parent)
chain: MAVSESQLKKMVSKYKYRDLTVRETVNVITLYKDLKPVLDSYVFNDGSSRELMNLTGTIPVPYRGNTYNIPICLWLLDTYPYNPPICFVKPTSSMTIKTGKHVDANGKIYLPYLHEWKHPQSDLLGLIQVMIVVFGDEPPVFSRPISASYPPYQATGPPNTSYMPGMPGGISPYPSGYPPNPSGYPGCPYPPGGPYPATTSSQYPSQPPVTTVGPSRDGTISEDTIRASLISAVSDKLRWRMKEEMDRAQAELNALKRTEEDLKKGHQKLEEMVTRLDQEVAEVDKNIELLKKKDEELSSALEKMENQSENNDIDEVIIPTAPLYKQILNLYAEENAIEDTIFYLGEALRRGVIDLDVFLKHVRLLSRKQFQLRALMQKARKTAGLSDLY
B2: KH domain-containing, RNA-binding, signal transduction-associated protein 2 (Homo sapiens), Q5VWX1 (parent)
chain: MEEEKYLPELMAEKDSLDPSFVHASRLLAEEIEKFQGSDGKKEDEEKKYLDVISNKNIKLSERVLIPVKQYPKFNFVGKLLGPRGNSLKRLQEETGAKMSILGKGSMRDKAKEEELRKSGEAKYAHLSDELHVLIEVFAPPGEAYSRMSHALEEIKKFLVPDYNDEIRQEQLRELSYLNGSEDSGRGRGIRGRGIRIAPTAPSRGRGGAIPPPPPPGRGVLTPRGSTVTRGALPVPPVARGVPTPRARGAPTVPGYRAPPPPAHEAYEEYGYDDGYGGEYDDQTYETYDNSYATQTQSVPEYYDYGHGVSEDAYDSYAPEEWATTRSSLKAPPQRSARGGYREHPYGRY
partner: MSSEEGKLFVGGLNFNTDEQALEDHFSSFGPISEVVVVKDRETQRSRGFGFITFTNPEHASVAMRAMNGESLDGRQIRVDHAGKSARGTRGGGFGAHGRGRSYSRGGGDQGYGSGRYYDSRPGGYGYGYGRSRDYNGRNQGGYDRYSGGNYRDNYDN
B3: Dynein axonemal light chain 4 (Homo sapiens), O96015 (parent)
chain: MGETEGKKDEADYKRLQTFPLVRHSDMPEEMRVETMELCVTACEKFSNNNESAAKMIKETMDKKFGSSWHVVIGEGFGFEITHEVKNLLYLYFGGTLAVCVWKCS
B4: Serine/threonine-protein kinase PAK 5 (Homo sapiens), Q9P286 (parent)
chain: MFGKKKKKIEISGPSNFEHRVHTGFDPQEQKFTGLPQQWHSLLADTANRPKPMVDPSCITPIQLAPMKTIVRGNKPCKETSINGLLEDFDNISVTRSNSLRKESPPTPDQGASSHGPGHAEENGFITFSQYSSESDTTADYTTEKYREKSLYGDDLDPYYRGSHAAKQNGHVMKMKHGEAYYSEVKPLKSDFARFSADYHSHLDSLSKPSEYSDLKWEYQRASSSSPLDYSFQFTPSRTAGTSGCSKESLAYSESEWGPSLDDYDRRPKSSYLNQTSPQPTMRQRSRSGSGLQEPMMPFGASAFKTHPQGHSYNSYTYPRLSEPTMCIPKVDYDRAQMVLSPPLSGSDTYPRGPAKLPQSQSKSGYSSSSHQYPSGYHKATLYHHPSLQSSSQYISTASYLSSLSLSSSTYPPPSWGSSSDQQPSRVSHEQFRAALQLVVSPGDPREYLANFIKIGEGSTGIVCIATEKHTGKQVAVKKMDLRKQQRRELLFNEVVIMRDYHHDNVVDMYSSYLVGDELWVVMEFLEGGALTDIVTHTRMNEEQIATVCLSVLRALSYLHNQGVIHRDIKSDSILLTSDGRIKLSDFGFCAQVSKEVPKRKSLVGTPYWMAPEVISRLPYGTEVDIWSLGIMVIEMIDGEPPYFNEPPLQAMRRIRDSLPPRVKDLHKVSSVLRGFLDLMLVREPSQRATAQELLGHPFLKLAGPPSCIVPLMRQYRHH
partner: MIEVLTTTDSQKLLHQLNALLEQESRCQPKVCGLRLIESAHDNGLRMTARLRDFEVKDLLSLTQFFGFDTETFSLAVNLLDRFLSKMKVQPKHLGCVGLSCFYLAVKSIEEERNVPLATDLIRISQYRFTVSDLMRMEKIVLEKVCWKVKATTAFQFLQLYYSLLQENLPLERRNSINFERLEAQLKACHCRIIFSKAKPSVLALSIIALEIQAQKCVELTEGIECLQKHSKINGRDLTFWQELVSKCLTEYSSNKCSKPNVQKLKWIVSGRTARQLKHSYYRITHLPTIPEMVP
B5: Zinc finger CCCH-type with G patch domain-containing protein (Homo sapiens), Q8N5A5 (parent)
chain: MDEESLESALQTYRAQLQQVELALGAGLDSSEQADLRQLQGDLKELIELTEASLVSVRKSSLLAALDEERPGRQEDAEYQAFREAITEAVEAPAAARGSGSETVPKAEAGPESAAGGQEEEEGEDEEELSGTKVSAPYYSSWGTLEYHNAMVVGTEEAEDGSAGVRVLYLYPTHKSLKPCPFFLEGKCRFKENCRFSHGQVVSLDELRPFQDPDLSSLQAGSACLAKHQDGLWHAARITDVDNGYYTVKFDSLLLREAVVEGDGILPPLRTEATESDSDSDGTGDSSYARVVGSDAVDSAQSSALCPSLAVVGSDAVDSGTCSSAFAGWEVHTRGIGSRLLTKMGYEFGKGLGRHAEGRVEPIHAVVLPRGKSLDQCVETLQKQTRVGKAGTNKPPRCRGRGARPGGRPAPRNVFDFLNEKLQGQAPGALEAGAAPAGRRSKDMYHASKSAKRALSLRLFQTEEKIERTQRDIRSIQEALARNAGRHSVASAQLQEKLAGAQRQLGQLRAQEAGLQQEQRKADTHKKMTEF
partner: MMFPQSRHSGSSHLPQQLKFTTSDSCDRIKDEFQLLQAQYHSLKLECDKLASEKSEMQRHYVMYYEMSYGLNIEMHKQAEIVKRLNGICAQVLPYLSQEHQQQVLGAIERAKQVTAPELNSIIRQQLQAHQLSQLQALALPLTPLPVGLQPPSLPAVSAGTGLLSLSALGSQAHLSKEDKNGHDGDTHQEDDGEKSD
B6: G2/M phase-specific E3 ubiquitin-protein ligase (Homo sapiens), Q7L622 (parent)
chain: MNESKPGDSQNLACVFCRKHDDCPNKYGEKKTKEKWNLTVHYYCLLMSSGIWQRGKEEEGVYGFLIEDIRKEVNRASKLKCCVCKKNGASIGCVAPRCKRSYHFPCGLQRECIFQFTGNFASFCWDHRPVQIITSNNYRESLPCTICLEFIEPIPSYNILRSPCCKNAWFHRDCLQVQAINAGVFFFRCTICNNSDIFQKEMLRMGIHIPEKDASWELEENAYQELLQHYERCDVRRCRCKEGRDYNAPDSKWEIKRCQCCGSSGTHLACSSLRSWEQNWECLECRGIIYNSGEFQKAKKHVLPNSNNVGITDCLLEESSPKLPRQSPGSQSKDLLRQGSKFRRNVSTLLIELGFQIKKKTKRLYINKANIWNSALDAFRNRNFNPSYAIEVAYVIENDNFGSEHPGSKQEFLSLLMQHLENSSLFEGSLSKNLSLNSQALKENLYYEAGKMLAISLVHGGPSPGFFSKTLFNCLVYGPENTQPILDDVSDFDVAQIIIRINTATTVADLKSIINECYNYLELIGCLRLITTLSDKYMLVKDILGYHVIQRVHTPFESFKQGLKTLGVLEKIQAYPEAFCSILCHKPESLSAKILSELFTVHTLPDVKALGFWNSYLQAVEDGKSTTTMEDILIFATGCSSIPPAGFKPTPSIECLHVDFPVGNKCNNCLAIPITNTYKEFQENMDFTIRNTLRLEKEESSHYIGH
partner: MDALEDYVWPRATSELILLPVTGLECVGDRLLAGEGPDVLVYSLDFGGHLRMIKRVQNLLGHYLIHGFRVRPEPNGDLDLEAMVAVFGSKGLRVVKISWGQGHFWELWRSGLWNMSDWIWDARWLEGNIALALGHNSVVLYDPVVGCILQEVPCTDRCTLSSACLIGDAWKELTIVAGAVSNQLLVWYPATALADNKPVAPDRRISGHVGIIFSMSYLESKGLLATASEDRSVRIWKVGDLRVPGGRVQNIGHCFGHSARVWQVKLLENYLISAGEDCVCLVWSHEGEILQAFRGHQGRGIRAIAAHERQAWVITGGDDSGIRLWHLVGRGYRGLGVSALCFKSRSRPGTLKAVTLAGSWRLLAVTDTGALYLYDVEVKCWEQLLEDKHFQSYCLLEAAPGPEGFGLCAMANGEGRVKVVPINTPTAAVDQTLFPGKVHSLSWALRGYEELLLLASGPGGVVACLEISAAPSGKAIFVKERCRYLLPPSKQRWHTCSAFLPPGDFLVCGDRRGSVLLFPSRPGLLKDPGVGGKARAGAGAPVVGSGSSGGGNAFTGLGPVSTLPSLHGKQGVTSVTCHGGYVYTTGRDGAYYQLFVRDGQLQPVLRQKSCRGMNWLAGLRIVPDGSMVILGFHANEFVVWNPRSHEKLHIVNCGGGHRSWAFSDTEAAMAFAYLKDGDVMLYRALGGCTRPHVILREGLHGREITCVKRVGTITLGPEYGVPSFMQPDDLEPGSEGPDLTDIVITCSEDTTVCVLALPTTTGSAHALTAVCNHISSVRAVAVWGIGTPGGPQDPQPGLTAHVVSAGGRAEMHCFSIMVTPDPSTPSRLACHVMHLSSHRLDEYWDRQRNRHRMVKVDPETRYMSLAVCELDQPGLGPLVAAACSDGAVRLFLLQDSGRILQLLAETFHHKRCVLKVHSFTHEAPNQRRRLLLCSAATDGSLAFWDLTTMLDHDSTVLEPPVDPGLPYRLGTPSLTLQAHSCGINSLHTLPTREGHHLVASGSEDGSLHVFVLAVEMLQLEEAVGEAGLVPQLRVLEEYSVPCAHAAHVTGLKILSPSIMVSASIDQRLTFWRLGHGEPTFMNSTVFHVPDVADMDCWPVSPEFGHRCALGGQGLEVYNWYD
B7: Notch homolog 2 N-terminal-like protein A (Homo sapiens), Q7Z3S9 (parent)
chain: MCVTYHNGTGYCKCPEGFLGEYCQHRDPCEKNRCQNGGTCVAQAMLGKATCRCASGFTGEDCQYSTSHPCFVSRPCLNGGTCHMLSRDTYECTCQVGFTGKECQWTDACLSHPCANGSTCTTVANQFSCKCLTGFTGQKCETDVNECDIPGHCQHGGTCLNLPGSYQCQCLQGFTGQYCDSLYVPCAPSPCVNGGTCRQTGDFTFECNCLPETVRRGTELWERDREVWNGKEHDEN
partner: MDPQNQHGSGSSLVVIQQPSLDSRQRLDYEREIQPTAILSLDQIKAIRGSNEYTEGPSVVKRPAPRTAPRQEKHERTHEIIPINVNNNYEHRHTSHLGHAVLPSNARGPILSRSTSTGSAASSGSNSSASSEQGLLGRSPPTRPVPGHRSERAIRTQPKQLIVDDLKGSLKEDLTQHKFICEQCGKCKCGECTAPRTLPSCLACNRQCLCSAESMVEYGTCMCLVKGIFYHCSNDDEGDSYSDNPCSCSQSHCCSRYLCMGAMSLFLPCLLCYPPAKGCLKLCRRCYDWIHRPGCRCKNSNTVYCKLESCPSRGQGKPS

Variants of: B1
Conditions: with hgs_human HGS
For M167I, the “effect of a mutation on the interaction” value was “with no effect”.

Variants of: B2
Conditions: with rbm3_human RBM3, P98179
In the case of P333L, the “effect of a mutation on the interaction” value is reported as “with no effect”.

Variants of: B3
Conditions: with dyl2_human DYNLL2, Q96FJ2
Chain of dyl2_human DYNLL2, Q96FJ2 (Q96FJ2 whole entry): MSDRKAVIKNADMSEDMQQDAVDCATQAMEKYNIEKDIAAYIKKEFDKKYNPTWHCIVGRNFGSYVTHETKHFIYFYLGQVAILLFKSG
With R32C the “effect of a mutation on the interaction” value was “disrupting interaction strength”.

Variants of: B4
Conditions: with ccng1_human CCNG1, P51959
For R335P, the “effect of a mutation on the interaction” value was “with no effect”. With V604I the “effect of a mutation on the interaction” value was “with no effect”. With S511N the “effect of a mutation on the interaction” value was “with no effect”.

Variants of: B5
Conditions: with tle5_human TLE5, Q08117
S61R was tested, and the “effect of a mutation on the interaction” value was “with no effect”.

Variants of: B6
Conditions: with wdr6_human WDR6, Q9NNW5
In the case of P328L, the “effect of a mutation on the interaction” value is reported as “with no effect”.

Variants of: B7
Conditions: with spy1_human SPRY1, O43609
In the case of R74Q, the “effect of a mutation on the interaction” value is reported as “with no effect”. A115T was tested, and the “effect of a mutation on the interaction” value was “with no effect”.

From IntAct's records for PubMed 31515488
